Experimental data reported in paper doi:10.1101/2023.01.06.522972 (2023).

Target: Leishmania major actin (Leishmania major, UniProt P45520 2-376)
Test: ITC; ATP-actin

Leishmania major actin, sequence (P45520 2-376): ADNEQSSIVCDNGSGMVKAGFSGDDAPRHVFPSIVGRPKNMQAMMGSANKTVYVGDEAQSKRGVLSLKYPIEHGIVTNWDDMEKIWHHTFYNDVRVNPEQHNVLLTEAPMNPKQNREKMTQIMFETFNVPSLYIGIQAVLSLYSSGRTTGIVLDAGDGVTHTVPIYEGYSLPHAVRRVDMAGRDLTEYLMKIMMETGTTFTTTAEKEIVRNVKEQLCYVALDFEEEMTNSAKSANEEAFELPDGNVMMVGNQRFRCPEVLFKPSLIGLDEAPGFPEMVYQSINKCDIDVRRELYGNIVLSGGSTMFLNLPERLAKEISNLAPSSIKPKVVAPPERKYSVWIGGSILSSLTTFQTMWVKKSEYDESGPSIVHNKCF

B1: Leishmania major profilin, wild type (natural protein)
chain: SWQAYVDDSLIGSGNMHSAAIIGAADGSYWAYGGSYVPQPEEVQHIQKCLSDFSFVQSSGVNIYGVKFFGLQCGTDGDCKYIFFKKGAAGGCIYTTKQAFIVAVYGNPGDTSSLQQDLEKNTAHAVTVNPADCNTTVKRIADYLIKLGY
Work on B1 yielded a Kd of 71.8 nM.
